# Laboratory results reported in IntAct's records for PubMed 34075876.
# B1: Protein TOPLESS (Arabidopsis thaliana (Mouse-ear cress)), Q94AI7 (parent)
# chain: MSSLSRELVFLILQFLDEEKFKETVHKLEQESGFFFNMKYFEDEVHNGNWDEVEKYLSGFTKVDDNRYSMKIFFEIRKQKYLEALDKHDRPKAVDILVKDLKVFSTFNEELFKEITQLLTLENFRENEQLSKYGDTKSARAIMLVELKKLIEANPLFRDKLQFPTLRNSRLRTLINQSLNWQHQLCKNPRPNPDIKTLFVDHSCGPPNGARAPSPVNNPLLGGIPKAGGFPPLGAHGPFQPTASPVPTPLAGWMSSPSSVPHPAVSAGAIALGGPSIPAALKHPRTPPTNASLDYPSADSEHVSKRTRPMGISDEVNLGVNMLPMSFSGQAHGHSPAFKAPDDLPKTVARTLSQGSSPMSMDFHPIKQTLLLVGTNVGDIGLWEVGSRERLVQKTFKVWDLSKCSMPLQAALVKEPVVSVNRVIWSPDGSLFGVAYSRHIVQLYSYHGGEDMRQHLEIDAHVGGVNDISFSTPNKQLCVITCGDDKTIKVWDAATGVKRHTFEGHEAPVYSVCPHYKENIQFIFSTALDGKIKAWLYDNMGSRVDYDAPGRWCTTMAYSADGTRLFSCGTSKDGESFIVEWNESEGAVKRTYQGFHKRSLGVVQFDTTKNRYLAAGDDFSIKFWDMDAVQLLTAIDGDGGLQASPRIRFNKEGSLLAVSGNENVIKIMANSDGLRLLHTFENISSESSKPAINSIAAAAAAAATSAGHADRSANVVSIQGMNGDSRNMVDVKPVITEESNDKSKIWKLTEVSEPSQCRSLRLPENLRVAKISRLIFTNSGNAILALASNAIHLLWKWQRNERNATGKATASLPPQQWQPASGILMTNDVAETNPEEAVPCFALSKNDSYVMSASGGKISLFNMMTFKTMATFMPPPPAATFLAFHPQDNNIIAIGMDDSTIQIYNVRVDEVKSKLKGHSKRITGLAFSNVLNVLVSSGADAQLCVWNTDGWEKQRSKVLPLPQGRPNSAPSDTRVQFHQDQAHFLVVHETQLAIYETTKLECMKQWAVRESLAPITHATFSCDSQLVYASFMDATVCVFSSANLRLRCRVNPSAYLPASLSNSNVHPLVIAAHPQEPNMFAVGLSDGGVHIFEPLESEGKWGVAPPAENGSASGAPTAPSVGASASDQPQR
# partner: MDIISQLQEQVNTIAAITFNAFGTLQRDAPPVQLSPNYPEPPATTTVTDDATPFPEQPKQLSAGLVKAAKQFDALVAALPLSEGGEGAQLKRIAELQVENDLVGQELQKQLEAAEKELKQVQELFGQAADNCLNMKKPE
# B2: Protein TOPLESS (Arabidopsis thaliana (Mouse-ear cress)), Q94AI7 (parent)
# chain: B1 chain
# partner: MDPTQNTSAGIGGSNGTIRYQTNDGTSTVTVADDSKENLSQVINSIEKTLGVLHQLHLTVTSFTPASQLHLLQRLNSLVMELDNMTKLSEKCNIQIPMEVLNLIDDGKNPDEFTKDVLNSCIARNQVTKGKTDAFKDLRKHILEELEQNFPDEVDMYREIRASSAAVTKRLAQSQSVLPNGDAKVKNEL
# Variants of: B1
# Details: with med21_arath MED21, C0LU16
row,Variant,effect of a mutation on the interaction
1,V145A,decreasing interaction strength
2,E146A,decreasing interaction strength
3,K148A,decreasing interaction strength
4,K149A,decreasing interaction strength

# Variants of: B1
# Details: with med21_arath MED21, C0LU16
# Remark: another data set of the same source
row,Variant,effect of a mutation on the interaction
1,V145A;E146A;K148A;K149A,disrupting interaction strength

# Variants of: B2
# Details: with md10b_arath MED10B
row,Variant,effect of a mutation on the interaction
1,V145A;E146A;K148A;K149A,decreasing interaction strength
